Data set [1] is described as follows: Thermostability: mid-point thermal denaturation temperature (Tm) from temperature-dependent fluorescence (Roche LightCycler). It counts as physicochemical. Conditions: for apoTm: apo-protein. In outline:
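Unfolding tracked by SYPRO binding to denatured protein, fluorescence at 488 nm/510 nm recorded on a LightCycler as temperature rose in 1 K steps. Tm taken as denaturation mid-point, for protein in solution or immobilized on Ni-NTA or NHS-agarose beads.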

The format of data set [2] is physicochemical. From the text: Panels A-C: ttGBP182C.2.0-Imm0; Panels D-F: ttGBP182C.2.0-Imm1 (see FIG. 13). (A) Solution (Tm=347.6K). (B) Immobilized on Nickel-nitriloacetic acid (Ni-NTA) beads (Tm=346.7K). (C) Reconstituted, desiccated Ni-NTA beads (Tm=347.6K). (D) Fluorescence response of ttGGBP5.2 Imm1 immobilized on NHS-functionalized agarose beads. Data was collected on a Roche LightCycler real-time PCS instrument, recording emission intensities at 488 nm and 510 nm as a function of temperature in a 384-well microtiter plate. […] Temperature melts of twelve different wells. Apo protein thermostability as reported by the denaturation mid-point temperature is 349 K, similar to the protein free in solution. […] (F) Representative Langmuir ligand-binding curve extracted from the three-dimensional data.
Site-specific immobilization minimizes perturbation of the sensing mechanism. […] Similarly, hexa-lysine fusion domains were immobilized on agarose beads derivatized with N-hydroxysuccinimide, and the QNK- or βZif-fusion on iodacetyl-derivatized beads.

A short description of data set [3]: Glucose binding: isothermal fluorescence titrations, ratiometric (appKd) and monochromatic (trueKd) fits. Conditions: room temperature. Set-up: key to Glucose appKd / Glucose trueKd: nb, no bonding. From the text:
2 For a single glucose-binding site, the fractional saturation is given by
[formula] where ^apoIλ2 and ^satIλ2 are the emission intensities of the monochromatic signal at wavelength λ2 of the ligand-free and ligand-bound protein, respectively.

The nature of data set [4]: Glucose-dependent fluorescence emission intensity spectra of conjugates (Nanodrop3300). Conditions: Nanodrop3300. It counts as biochemical. From the text: Semi-synthetic FRSs were engineered by site-specifically attaching thiol-reactive, environmentally sensitive fluorophores that respond to ligand-mediated conformational changes. Identification of FRS candidates that are useful for sensing applications comprises three steps: • 1. Cysteine scan. Mutant glucose-binding proteins containing single cysteines are constructed for site-specific attachment of thiol-reactive fluorophores. […] Candidate positions fall into three classes: endosteric, replacing a residue that contacts the ligand directly; peristeric, located at the rim of the binding site; allosteric (Marvin et al. 1997 Proc Natl Acad Sci USA, 94, 4366-71; Marvin 1998 J Am Chem Soc, 120, 7-11), located outside the binding site at sites that undergo local structural changes in concert with the hinge-bending motion. • 2. Fluorophore screening. Thiol-reactive, environmentally sensitive fluorophores are attached to each cysteine mutant prepared in step 1. • 3. Evaluation of the glucose-mediated change of all the fluorescent conjugates prepared in step 2. Responses to ligand binding in which there is both a change in fluorescence emission intensity and spectral shape was essential for chemometric applications, because such changes enable ratiometric measurements. Changes in spectral shape typically are accompanied by a shift in the wavelength of the emission intensity maxima. Three classes of fluorescent responses are possible: • i. No response. • ii. Monochromatic response (emission intensity increases or decreases without a change in spectral shape) • iii.

Data set [5] in a line: Galactose binding: isothermal fluorescence titrations of conjugates. Conditions: for S, selectivity = trueKd(galactose)/trueKd(glucose): S > 1, selective for glucose; for Kd: read-out: Galactose trueKd; for Kd / Galactose trueKd: monochromatic titration curves, room temperature. Set-up: key to Galactose trueKd: nb, no bonding.
The mark [6] stands for this setting: read-out: Glucose appKd, Badan conjugate, dichromatic ratiometry.
The mark [7] stands for this setting: read-out: Glucose trueKd, Badan conjugate, monochromatic titration curves.
Setting [8] is: Badan conjugate of ttGGBP.17C mutant.
[9] abbreviates: read-out: Glucose appKd, Acrylodan conjugate, dichromatic ratiometry.
[10] abbreviates: read-out: Glucose trueKd, Acrylodan conjugate, monochromatic titration curves.
Setting [11] is: Acrylodan conjugate of ttGGBP.17C mutant.

Positions count from the first letter of the chain named. Where two headings read alike, the source gives them in different places.

The values below come from US11156615B2 (priority 2015, dated 2021).

B1: ttGBP182C.2.0-Imm0: ttGGBP182C.2.0 immobilization fusion construct Imm0 (SEQ ID NO: 173), Acrylodan labelled (conjugate)
chain: MKQLNIGVAIYKFDDTFMTGVRNAMTAEAQGKAKLNMVDSQNSQPTQNDQVDLFITKKMNALAINPVDRTAAGTIIDKAKQANIPVVFFNKEPLPEDMKKWDKVYYVGAKAEQSGILQGQIMADYWKAHPEADKNHDGVMQYVMLMGEPGHQDAILRTQYSIQTVKDAGIKVQELAKDYANCDRVTAHDKMAAWLSSFGDKIEAVFANNDDMALGAIEALKSAGYFTGNKYIPVVGVDATAPGIQAIKDGTLLGTVLNDAKNQAKATFNIAYELAQGITPTKDNIGYDITDGKYVWIPYKKITKDNISDAEQGGSHHHHHH
modifications: Acrylodan label; ttGGBP182C.2.0_Imm0
As for B1, the Tm in data set [1] (solution (FIG. 14A)) came out at 74.5 °C; in data set [2] (immobilized on Ni-NTA beads (FIG. 14B)), 73.6 °C; in data set [2] (reconstituted, desiccated Ni-NTA beads (FIG. 14C)), 74.5 °C.

B2: ttGGBP17C.27: affinity-tuning mutant, 17C background, SEQ ID NO: 85 (protein)
chain: B1 chain with F17C, K91R, E148Q, C182W, A260F
modifications: ttGGBP17C.27 (affinity-tuning mutant, 17C background (Table 6) with signal peptide replaced with M and GGSHHHHHH at C-terminus)
Regarding B2, the apoTm in data set [1] (Badan conjugate) came out at 346 K. Besides, the Kd was 200 µM in data set [3] (setting [6]), 300 µM in data set [3] (setting [7]) and 8800 µM in data set [5] (Badan conjugate). The “Type of fluorescence response to glucose” value in data set [4] (setting [8]) is listed as “i (i, intensity increase only)”. The “S, selectivity = trueKd(galactose)/trueKd(glucose)” value in data set [5] (Badan conjugate) was 33.

B3: ttGGBP17C.7: affinity-tuning mutant, 17C background, SEQ ID NO: 72 (protein)
chain: B1 chain with D15N, F17C, K91R, E148Q, C182W
modifications: ttGGBP17C.7 (affinity-tuning mutant, 17C background (Table 6) with signal peptide replaced with M and GGSHHHHHH at C-terminus)
In the case of B3, the apoTm in data set [1] (Acrylodan conjugate) turned out to be 348 K; in data set [1] (Badan conjugate), 347 K. The Kd in data set [3] (setting [9]) was determined as 300 µM; in data set [3] (setting [6]), 750 µM; in data set [3] (setting [10]), 300 µM; in data set [3] (setting [7]) it was 1000 µM; in data set [5] (Acrylodan conjugate), 300 µM; in data set [5] (Badan conjugate) it was 640 µM. Further, the “Type of fluorescence response to glucose” value in data set [4] (setting [11]) is recorded as “d (d, intensity decrease only)”; in data set [4] (setting [8]), “d (d, intensity decrease only)”. Further, the “S, selectivity = trueKd(galactose)/trueKd(glucose)” value is recorded as 0.91 in data set [5] (Acrylodan conjugate) and 0.64 in data set [5] (Badan conjugate).

B4: ttGGBP17C.28: affinity-tuning mutant, 17C background, SEQ ID NO: 86 (protein)
chain: B1 chain with F17C, K91R, E148Q, C182W, A260Y
modifications: ttGGBP17C.28 (affinity-tuning mutant, 17C background (Table 6) with signal peptide replaced with M and GGSHHHHHH at C-terminus)
As for B4, in data set [1] (Badan conjugate), the apoTm came out at 346 K. Besides, the Kd in data set [3] (setting [6]) came out at 60 µM; in data set [3] (setting [7]) it was 70 µM; in data set [5] (Badan conjugate), 2600 µM. Also, in data set [4] (setting [8]), the “Type of fluorescence response to glucose” value is reported as “i (i, intensity increase only)”. Moreover, the “S, selectivity = trueKd(galactose)/trueKd(glucose)” value in data set [5] (Badan conjugate) worked out at 37.

B5: ttGGBP17C.23: affinity-tuning mutant, 17C background, SEQ ID NO: 81 (protein)
chain: B1 chain with F17C, K91R, E148Q, C182W, A260Q
modifications: ttGGBP17C.23 (affinity-tuning mutant, 17C background (Table 6) with signal peptide replaced with M and GGSHHHHHH at C-terminus)
B5: in data set [1] (Badan conjugate), the apoTm is 344 K. Moreover, the results for the Kd in data set [3] (setting [6]) and in data set [3] (setting [7]) were 15000 µM and 18000 µM, respectively. The “Type of fluorescence response to glucose” value in data set [4] (setting [11]) is “i (i, intensity increase only)”; in data set [4] (setting [8]) it was “i (i, intensity increase only)”. Also, the “Galactose trueKd” value in data set [5] (Badan conjugate) is recorded as “nb^c”.

B6: ttGGBP17C.20: affinity-tuning mutant, 17C background, SEQ ID NO: 78 (protein)
chain: B1 chain with F17C, K91R, E148Q, C182W, N258S
modifications: ttGGBP17C.20 (affinity-tuning mutant, 17C background (Table 6) with signal peptide replaced with M and GGSHHHHHH at C-terminus)
On to B6, for which the apoTm in data set [1] (Badan conjugate) is 344 K. The “Glucose appKd” value in data set [3] (Badan conjugate, dichromatic ratiometry) was “nb^e”. Also, the “Glucose trueKd” value in data set [3] (Badan conjugate, monochromatic titration curves) is given as “nb^e”. The “Type of fluorescence response to glucose” value in data set [4] (setting [11]) was “d (d, intensity decrease only)”. Besides, in data set [5] (Badan conjugate), the “Galactose trueKd” value is given as “nb^e”.

B7: ttGGBP17C.26: affinity-tuning mutant, 17C background, SEQ ID NO: 84 (protein)
chain: B1 chain with F17C, K91R, E148Q, C182W, A260W
modifications: ttGGBP17C.26 (affinity-tuning mutant, 17C background (Table 6) with signal peptide replaced with M and GGSHHHHHH at C-terminus)
B7: in data set [1] (Badan conjugate), the apoTm is given as 346 K. Moreover, the Kd was 900 µM in data set [3] (setting [6]), 900 µM in data set [3] (setting [7]) and 14000 µM in data set [5] (Badan conjugate). Further, the “Type of fluorescence response to glucose” value is “i (i, intensity increase only)” in data set [4] (setting [11]) and “r(h) (r(h), ratiometric (hypsochromic shift))” in data set [4] (setting [8]). The “S, selectivity = trueKd(galactose)/trueKd(glucose)” value in data set [5] (Badan conjugate) is on record as 16.

B8: ttGGBP17C.6: affinity-tuning mutant, 17C background, SEQ ID NO: 71 (protein)
chain: B1 chain with D15E, F17C, K91R, E148Q, C182W
modifications: ttGGBP17C.6 (affinity-tuning mutant, 17C background (Table 6) with signal peptide replaced with M and GGSHHHHHH at C-terminus)
In the case of B8, the apoTm in data set [1] (Badan conjugate) stood at 346 K. In addition, the Kd in data set [3] (setting [6]) was determined as 3300 µM; in data set [3] (setting [7]), 3600 µM; in data set [5] (Badan conjugate), 3600 µM. In addition, the “Type of fluorescence response to glucose” value in data set [4] (setting [8]) is listed as “r(h) (r(h), ratiometric (hypsochromic shift))”. In addition, the “S, selectivity = trueKd(galactose)/trueKd(glucose)” value in data set [5] (Badan conjugate) was 1.

B9: ttGGBP17C.8: affinity-tuning mutant, 17C background, SEQ ID NO: 73 (protein)
chain: B1 chain with T16N, F17C, K91R, E148Q, C182W
modifications: ttGGBP17C.8 (affinity-tuning mutant, 17C background (Table 6) with signal peptide replaced with M and GGSHHHHHH at C-terminus)
B9 registered an apoTm in data set [1] (Acrylodan conjugate) of 348 K. Moreover, the Kd in data set [3] (setting [9]) was 610 µM; in data set [3] (setting [10]), 600 µM; in data set [5] (Acrylodan conjugate) it was 260 µM. The “Type of fluorescence response to glucose” value in data set [4] (setting [11]) is on record as “r(h) (r(h), ratiometric (hypsochromic shift))”. In addition, the “S, selectivity = trueKd(galactose)/trueKd(glucose)” value in data set [5] (Acrylodan conjugate) was 0.43.
